According to publication PMC2755957 (The Journal of Biological Chemistry, 2009):

T1: mouse Δ1–24-L-PGDS (lipocalin type prostaglandin D synthase) (Mus musculus, UniProt O09114, S45A/S81A/T67A)
T1 sequence (O09114 25-189 S45A/T67A/S81A): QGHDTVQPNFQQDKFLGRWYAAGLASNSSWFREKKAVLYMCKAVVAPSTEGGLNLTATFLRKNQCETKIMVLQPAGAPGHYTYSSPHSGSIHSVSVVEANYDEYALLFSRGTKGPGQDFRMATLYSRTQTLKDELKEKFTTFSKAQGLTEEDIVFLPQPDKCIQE


Molecular target: T1, mouse Δ1–24-L-PGDS (lipocalin type prostaglandin D synthase)
Experiment: biochemical
Settings: not given

Molecule	Kd [nM]
CC1=C(/C=C/C(C)=C/C=C/C(C)=C/C(=O)O)C(C)(C)CCC1 [all-trans-retinoic acid]	418 ± 124

Substrate: [H][C@]12C[C@]([H])(OO1)[C@H](C/C=C\CCCC(=O)O)[C@H]2/C=C/[C@@H](O)CCCCC
Experiment: purified protein, by the assay type
Settings: pH 8.0; 25.0 °C

Molecule	Km [µM]	Vmax [µmol/min/mg]
mouse Δ1–24-L-PGDS (lipocalin type prostaglandin D synthase) (Mus musculus; W54A) (protein) QGHDTVQPNFQQDKFLGRWYSAGLASNSSAFREKKAVLYMCKTVVAPSTEGGLNLTSTFLRKNQCETKIMVLQPAGAPGHYTYSSPHSGSIHSVSVVEANYDEYALLFSRGTKGPGQDFRMATLYSRTQTLKDELKEKFTTFSKAQGLTEEDIVFLPQPDKCIQE	1.3 ± 0.5	3.6
Δ^1–24-L-PGDS + P110A (Mus musculus; P110A) (protein) MAALRMLWMGLVLLGLLGFPQTPAQGHDTVQPNFQQDKFLGRWYSAGLASNSSWFREKKAVLYMCKTVVAPSTEGGLNLTSTFLRKNQCETKIMVLQPAGAPGHYTYSSAHSGSIHSVSVVEANYDEYALLFSRGTKGPGQDFRMATLYSRTQTLKDELKEKFTTFSKAQGLTEEDIVFLPQPDKCIQE	1.6 ± 0.5	4.8
mouse Δ1–24-L-PGDS (lipocalin type prostaglandin D synthase) (Mus musculus; H111A) (protein) QGHDTVQPNFQQDKFLGRWYSAGLASNSSWFREKKAVLYMCKTVVAPSTEGGLNLTSTFLRKNQCETKIMVLQPAGAPGHYTYSSPASGSIHSVSVVEANYDEYALLFSRGTKGPGQDFRMATLYSRTQTLKDELKEKFTTFSKAQGLTEEDIVFLPQPDKCIQE	1.4 ± 0.4	5.1
mouse Δ1–24-L-PGDS (lipocalin type prostaglandin D synthase) (Mus musculus; H116A) (protein) QGHDTVQPNFQQDKFLGRWYSAGLASNSSWFREKKAVLYMCKTVVAPSTEGGLNLTSTFLRKNQCETKIMVLQPAGAPGHYTYSSPHSGSIASVSVVEANYDEYALLFSRGTKGPGQDFRMATLYSRTQTLKDELKEKFTTFSKAQGLTEEDIVFLPQPDKCIQE	1.4 ± 0.1	4.4
mouse Δ1–24-L-PGDS (lipocalin type prostaglandin D synthase) (Mus musculus; S45A) (protein) QGHDTVQPNFQQDKFLGRWYAAGLASNSSWFREKKAVLYMCKTVVAPSTEGGLNLTSTFLRKNQCETKIMVLQPAGAPGHYTYSSPHSGSIHSVSVVEANYDEYALLFSRGTKGPGQDFRMATLYSRTQTLKDELKEKFTTFSKAQGLTEEDIVFLPQPDKCIQE	0.5 ± 0.2	2.3
mouse Δ1–24-L-PGDS (lipocalin type prostaglandin D synthase) (Mus musculus; T67A) (protein) QGHDTVQPNFQQDKFLGRWYSAGLASNSSWFREKKAVLYMCKAVVAPSTEGGLNLTSTFLRKNQCETKIMVLQPAGAPGHYTYSSPHSGSIHSVSVVEANYDEYALLFSRGTKGPGQDFRMATLYSRTQTLKDELKEKFTTFSKAQGLTEEDIVFLPQPDKCIQE	2.8 ± 0.9	2.8
mouse Δ1–24-L-PGDS (lipocalin type prostaglandin D synthase) (Mus musculus; S81A) (protein) QGHDTVQPNFQQDKFLGRWYSAGLASNSSWFREKKAVLYMCKTVVAPSTEGGLNLTATFLRKNQCETKIMVLQPAGAPGHYTYSSPHSGSIHSVSVVEANYDEYALLFSRGTKGPGQDFRMATLYSRTQTLKDELKEKFTTFSKAQGLTEEDIVFLPQPDKCIQE	1.5 ± 0.4	4.7
Δ^1–24-L-PGDS + S45A/T67A (Mus musculus; S45A/T67A) (protein) MAALRMLWMGLVLLGLLGFPQTPAQGHDTVQPNFQQDKFLGRWYAAGLASNSSWFREKKAVLYMCKAVVAPSTEGGLNLTSTFLRKNQCETKIMVLQPAGAPGHYTYSSPHSGSIHSVSVVEANYDEYALLFSRGTKGPGQDFRMATLYSRTQTLKDELKEKFTTFSKAQGLTEEDIVFLPQPDKCIQE	2.1 ± 0.6	1.6
Δ^1–24-L-PGDS + S45A/S81A (Mus musculus; S45A/S81A) (protein) MAALRMLWMGLVLLGLLGFPQTPAQGHDTVQPNFQQDKFLGRWYAAGLASNSSWFREKKAVLYMCKTVVAPSTEGGLNLTATFLRKNQCETKIMVLQPAGAPGHYTYSSPHSGSIHSVSVVEANYDEYALLFSRGTKGPGQDFRMATLYSRTQTLKDELKEKFTTFSKAQGLTEEDIVFLPQPDKCIQE	1.2 ± 0.3	1.5
Δ^1–24-L-PGDS + T67A/S81A (Mus musculus; S81A/T67A) (protein) MAALRMLWMGLVLLGLLGFPQTPAQGHDTVQPNFQQDKFLGRWYSAGLASNSSWFREKKAVLYMCKAVVAPSTEGGLNLTATFLRKNQCETKIMVLQPAGAPGHYTYSSPHSGSIHSVSVVEANYDEYALLFSRGTKGPGQDFRMATLYSRTQTLKDELKEKFTTFSKAQGLTEEDIVFLPQPDKCIQE	2.1 ± 0.2	1.3
mouse Δ1–24-L-PGDS (lipocalin type prostaglandin D synthase) (Mus musculus; S45A/S81A/T67A) (protein) QGHDTVQPNFQQDKFLGRWYAAGLASNSSWFREKKAVLYMCKAVVAPSTEGGLNLTATFLRKNQCETKIMVLQPAGAPGHYTYSSPHSGSIHSVSVVEANYDEYALLFSRGTKGPGQDFRMATLYSRTQTLKDELKEKFTTFSKAQGLTEEDIVFLPQPDKCIQE	1.2 ± 0.1	0.5
